According to US7285381:

How the values were obtained:
[1] = molecular target: Wild-type AAV2 capsid (AAV2) (UniProt P03135); assay: A20 capsid ELISA on virus stock
[2] = molecular target: AAV2 capsid VP1 mutant B+L (insertion of the P1 peptide at the BsrBI cleavage site) (AAV2) (UniProt P03135); assay: A20 capsid ELISA on virus stock
[3] = molecular target: AAV2 capsid VP1 mutant ΔBH+L (deletion between BsrBI and HindIII, and insertion of the P1 peptide) (AAV2) (UniProt P03135); assay: A20 capsid ELISA on virus stock
[4] = molecular target: AAV2 capsid VP3 mutant ins587 (insertion after amino acid 587, site LQRGN RQAAT) (AAV2) (UniProt P03135); assay: A20 capsid ELISA on virus stock
[5] = molecular target: AAV2 capsid VP3 mutant ins447 (insertion after amino acid 447, site YYLSR TNTPS) (AAV2) (UniProt P03135); assay: A20 capsid ELISA on virus stock
[6] = molecular target: AAV2 capsid VP1 mutant ΔBH (deletion between BsrBI and HindIII cleavage sites of VP-1, 29 amino acids) (AAV2) (UniProt P03135); assay: A20 capsid ELISA on virus stock
[7] = molecular target: AAV2 capsid VP1 mutant ΔXho (deletion between the XhoI-XhoI cleavage sites of VP-1, 62 amino acids) (AAV2) (UniProt P03135); assay: A20 capsid ELISA on virus stock
[8] = molecular target: Wild-type AAV2 capsid (AAV2) (UniProt P03135); assay: A20 capsid ELISA on CsCl-purified particles
[9] = molecular target: AAV2 capsid mutant I-587 (P1 peptide inserted after amino acid 587) (AAV2) (UniProt P03135); assay: A20 capsid ELISA on CsCl-purified particles
[10] = molecular target: AAV2 capsid mutant I-447 (P1 peptide inserted after amino acid 447) (AAV2) (UniProt P03135); assay: A20 capsid ELISA on CsCl-purified particles

Substance A20 monoclonal antibody has a capsid titer (ELISA with A20 MAb) [1] of 1e+11 particles/ml, a capsid titer (ELISA with A20 MAb) [2] of 5e+09 particles/ml and a capsid titer (ELISA with A20 MAb) [3] of 5e+10 particles/ml. For the same substance, the capsid titer (ELISA with A20 MAb) [4] was 2e+10 particles/ml, the capsid titer (ELISA with A20 MAb) [5] was 4e+10 particles/ml and the capsid titer (ELISA with A20 MAb) [6] was 4e+09 particles/ml. It also gave a capsid titer (ELISA with A20 MAb) [7] of 5e+10 particles/ml, a titer (ELISA with A20 MAb) [8] of 6e+12 particles/ml and a titer (ELISA with A20 MAb) [9] of 3e+12 particles/ml. For the same substance, the titer (ELISA with A20 MAb) [10] was 8e+11 particles/ml.
